Experimental data reported in US12365732 (23ANDME, dated 2025).
Substitutions are numbered along the chain they refer to. Numbers in names are those of the source.

T1: hu-CD96 isoform 1 on HEK293T cells (human, UniProt P40200 22-585)
T1 construct: Origene RC213845, transient expression; also called HEK293T-CD96 (iso1)
T1 sequence: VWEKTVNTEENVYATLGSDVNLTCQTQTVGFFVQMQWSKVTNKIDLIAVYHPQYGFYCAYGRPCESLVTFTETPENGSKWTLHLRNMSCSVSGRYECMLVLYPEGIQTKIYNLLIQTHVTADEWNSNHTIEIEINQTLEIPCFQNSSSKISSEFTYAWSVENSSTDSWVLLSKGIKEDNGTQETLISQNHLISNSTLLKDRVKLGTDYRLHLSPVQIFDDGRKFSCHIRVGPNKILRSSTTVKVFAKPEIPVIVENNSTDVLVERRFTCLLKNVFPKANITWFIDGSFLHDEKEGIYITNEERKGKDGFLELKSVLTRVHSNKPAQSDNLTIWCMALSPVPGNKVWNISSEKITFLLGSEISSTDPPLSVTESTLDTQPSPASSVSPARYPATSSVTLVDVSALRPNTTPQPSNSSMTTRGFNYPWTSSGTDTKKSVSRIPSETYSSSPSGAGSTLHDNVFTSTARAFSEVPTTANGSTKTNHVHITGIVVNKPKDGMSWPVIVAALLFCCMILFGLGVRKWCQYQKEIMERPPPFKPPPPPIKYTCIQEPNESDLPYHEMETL

T2: cynomolgus monkey CD96 on cynomolgus monkey PBMCs (cynomolgus monkey, UniProt A0A2K5TWV6 22-569)
T2 construct: whole, on cells
T2 sequence: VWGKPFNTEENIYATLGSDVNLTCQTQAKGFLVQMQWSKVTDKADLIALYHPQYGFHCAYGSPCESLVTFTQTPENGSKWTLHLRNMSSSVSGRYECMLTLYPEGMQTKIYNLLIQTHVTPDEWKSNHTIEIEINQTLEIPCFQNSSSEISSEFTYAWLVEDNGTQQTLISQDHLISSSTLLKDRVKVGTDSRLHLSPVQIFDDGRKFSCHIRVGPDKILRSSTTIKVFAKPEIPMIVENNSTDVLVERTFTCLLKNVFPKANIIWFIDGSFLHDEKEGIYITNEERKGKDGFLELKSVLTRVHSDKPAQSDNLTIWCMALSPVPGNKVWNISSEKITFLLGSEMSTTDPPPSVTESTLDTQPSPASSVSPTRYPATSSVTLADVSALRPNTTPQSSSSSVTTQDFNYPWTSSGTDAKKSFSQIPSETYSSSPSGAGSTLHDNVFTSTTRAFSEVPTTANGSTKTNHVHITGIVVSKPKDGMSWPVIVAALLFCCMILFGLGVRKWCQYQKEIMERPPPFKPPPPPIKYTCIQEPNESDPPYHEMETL

T3: hu-CD96 isoform 2 on CHO cells (human, UniProt P40200 22-585)
T3 construct: also called CHO-CD96 (isoform 2); CD96-CHOs
T3 sequence: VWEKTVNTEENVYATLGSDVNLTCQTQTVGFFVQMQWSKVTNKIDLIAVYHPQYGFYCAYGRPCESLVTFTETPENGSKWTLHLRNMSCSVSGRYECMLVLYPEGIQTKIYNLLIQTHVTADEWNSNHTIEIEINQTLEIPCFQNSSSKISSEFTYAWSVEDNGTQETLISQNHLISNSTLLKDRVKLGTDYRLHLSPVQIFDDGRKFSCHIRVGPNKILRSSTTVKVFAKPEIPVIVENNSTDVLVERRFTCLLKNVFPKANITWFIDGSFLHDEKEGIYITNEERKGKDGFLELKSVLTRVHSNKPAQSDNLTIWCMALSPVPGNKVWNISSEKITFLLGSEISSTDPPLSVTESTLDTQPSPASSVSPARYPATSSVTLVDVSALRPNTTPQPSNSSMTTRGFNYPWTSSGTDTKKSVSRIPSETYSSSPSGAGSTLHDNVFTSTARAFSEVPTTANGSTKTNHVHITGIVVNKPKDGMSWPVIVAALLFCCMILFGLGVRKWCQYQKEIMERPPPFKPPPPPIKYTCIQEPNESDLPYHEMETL

B1: 10G1 (clone 10G1.3G8), purified hybridoma antibody (antibody, V domains shown)
VH: QIQLVQSGPELKKPGETVKISCKASGYPFTTYGMSWVKQAPGKGLKWMGWINTDSGVPTYADDFKGRFAFSLETSANTAYLQINSLKNEDAATYFCARNIYYGWGNFDYWGQGTILTVSS
VL: DILMTQSPTTLSVTPGETVSLSCRASQDIYRNLHWYQQKSQGTPRLLIKHASDSISGIPSRFTGSGSGTDFTLSINSVKPEDEGIYYCLQGYSMPYTFGGGTKLEIK
notes: murine hybridoma IgG
B2: mAb1.v7 IgG (humanized 12F8) (antibody, V domains shown)
VH: EVQLVQSGAEVKKPGASVKVSCKASGFTFTNNWMHWVRQAPGQGLEWIGMIHPNSGITNINEKFKNRVTMTTDTSTSTAYMELRSLRSEDTAVYYCRSDGTYEGYFDYWGQGTLVTVSS
VL: DIQLTQSPSSLSASVGDRVTITCKASQNVGTAIVWYQQKPGKAPKVLIYSASTRYTGVPSRFSGSGSGTDFTLTISSLQPEDFATYYCQQYSSSPLTFGQGTKVEIKG
notes: human IgG1 N297G
B3: mAb1.v7.NGS9 IgG (antibody, V domains shown)
VH: B2 VH with W33F, P53A, T101V
VL: B2 VL
notes: human IgG1 N297G
B4: mAb1.v7.NGS11 IgG (antibody, V domains shown)
VH: B2 VH with W33F, M50F, P53A, T101V
VL: B2 VL
notes: human IgG1 N297G
B5: mAb1.v7.NGS10 IgG (antibody, V domains shown)
VH: B2 VH with W33F, M50F, P53A, T101I
VL: B2 VL
notes: human IgG1 N297G
B6: 9H4, purified hybridoma antibody (antibody, V domains shown)
VH: EVQLLETGGGLVKSGGSLKLSCAASGFTFSDYYMYWVRQTPEKRLEWVAAISDDGTYTYYPDSVKGRFTISRDNANNYLYLQMSSLKSEDTAIYYCAKAGSYDYFDVWGAGTTVTVSS
VL: DIVLTQSPASLAVSLGQRAIISCKASQSVTFADTGLMHWYQQKPGQQPKLLIYRASNLEVGVPTRFSGSGSGTDFTLNIHPVEEEDVATYYCQQSREYPWTFGGGTKLEIK
notes: murine hybridoma IgG
B7: h10G1 IgG (humanized 10G1) (antibody, V domains shown)
VH: EIQLVQSGSELKKPGASVKVSCKASGYPFTTYGMSWVRQAPGQGLEWMGWINTDSGVPTYADDFKGRFVFSLDTSVSTAYLQISSLKAEDTAVYFCARNIYYGWGNFDYWGQGTLVTVSS
VL: EIVMTQSPDFQSVTPKEKVTITCRASQDIYRNLHWYQQKPDQTPKLLIKHASDSISGIPSRFSGSGSGTDFTLTINSLEAEDAAAYYCLQGYSMPYTFGGGTKVEIKG
notes: human IgG1 N297G
B8: 7E5, purified hybridoma antibody (antibody, V domains shown)
VH: QVQLKESGPGLVAPSQSLSIICTVSGFSLTNYGIHWIRQPPGKGLEWLGIIWAGGSTNYNSALMSRLTISKDNSKSQVFLKMNSLQTNDTAIYYCARVSMMGFAYWGQGTLVTVSA
VL: QAVVTQESALTTSPGETVTLTCRSSTGAVTTSNYANWVQEKPDHLFTGLIGGTNNRAPGVPARFSGSLIGDKAALTITGAQTEDEAIYFCSLWYGSHWVFGGGTKLTVL
notes: murine hybridoma IgG

Columns and labels:
[1] = target: T1, hu-CD96 isoform 1 on HEK293T cells; test: FACS, Ab 10 nM
Experimental: Isoform 1 of hu-CD96 (Origene, catalog #RC213845) was transiently expressed in HEK293T cells following standard lipofectamine or Fugene transfection protocol. […] Cells were washed, and binding was detected by incubation with anti-mouse IgG-FITC (Biolegend, catalog #406001) for 20 minutes at 4° C. Cell binding was analyzed by flow cytometry with a CytoFLEX (Beckman Coulter). Binding curves were calculated as a percentage of cells positive for bound antibody.

[2] = target: T2, cynomolgus monkey CD96 on cynomolgus …; test: FACS, Ab 0.0256 nM
Experimental: (§1) The ability of the anti-CD96 antibodies to bind primary immune cells from human and cynomolgus monkey with lower level of receptor expression was measured. Human PBMCs (StemCell Technologies, catalog #70025) and cynomolgus monkey PBMCs (Primate Biologicals, catalog #CM-MC) were incubated with human TruStain FcX (Biolegend, catalog #422302) for 10 minutes at 4° C., followed by incubation with an anti-CD96 antibody for 20 minutes at 4° C. Cells were washed and the anti-CD96 antibody binding was detected by incubation with anti-mouse IgG-PE (Thermo Fisher, catalog #M30204) or anti-human IgG (Fab) 2-PE (Thermo Fisher, catalog #H10104) for 20 minutes at 4° C. Cells were washed, and immune subtypes were labeled with anti-CD3 (BD, catalog #557705), anti-CD4 (Biolegend, catalog #317424) and anti-CD8 (BD, catalog #557760) for 20 minutes at 4° C. Cell binding was analyzed by flow cytometry with a CytoFLEX (Beckman Coulter). Binding curves were calculated as a percentage of cells positive for bound antibody in the cell type of interest.

[3] = target: T3, hu-CD96 isoform 2 on CHO cells; test: FACS, CD155-Fc-FLAG 10 nM, Ab 0.0064 nM
Experimental: CHO cells stably expressing isoform 2 of hu-CD96 (Origene, catalog #RC221005) were incubated with anti-CD96 antibodies for 20 minutes at 4° C. The cells were washed, and then incubated with 10 nM human CD155-Fc-FLAG for 30 minutes at 4° C. Cells were washed, and then human CD155-Fc-FLAG binding was detected by incubation with anti-FLAG-APC (Columbia Biosciences, catalog #D3-1718-1MG) for 20 minutes at 4° C. Cell binding was analyzed by flow cytometry with a CytoFLEX (Beckman Coulter). CD155 binding is represented as median fluorescence intensity (MedFI).
As shown in Table 20 (below), the anti-CD96 antibodies, mAb1.v7.NGS8, mAb1.v7.NGS9, mAb1.v7.NGS10, mAb1.v7.NGS11, and h10G1 inhibited soluble hu-CD155 binding to CD96-expressing CHO cells dose-dependently and potently. The antibody NK92.39 (Fuchs et al., 2004; Biolegend catalog #338405) inhibited receptor binding similarly.

[4] = target: T2, cynomolgus monkey CD96 on cynomolgus …; test: FACS, Ab 3.2 nM
Experimental: as §1

| Binder | % positive [1] | % positive [2] | CD155-Fc binding (MedFI) [3] | % positive [4] |
| --- | --- | --- | --- | --- |
| B1 | 53.4% |  |  |  |
| B2 | 48.8% |  |  |  |
| B3 |  | 19.7% | 56600 MedFI | 77.9% |
| B4 |  | 41% | 63600 MedFI | 78.4% |
| B5 |  | 37.2% | 55900 MedFI | 76.7% |
| B6 | 48.4% |  |  |  |
| B7 |  | 16.8% | 65700 MedFI | 58.1% |
| B8 | 47.4% |  |  |  |
